# In PMC10130750, “The motor domain of the kinesin Kip2 promotes microtubule polymerization at microtubule tips” (The Journal of Cell Biology, 2023):
# B1: coiled-coil domain of Bik1 (Bik1-CC, residues 182–396) (domain or fragment, S. cerevisiae, UniProt P11709 182-396, looked up)
# chain: DNGHMNDLNSSEVTIELREAQLTIEKLQRKQLHYKRLLDDQRMVLEEVQPTFDRYEATIQEREKEIDHLKQQLELERRQQAKQKQFFDAENEQLLAVVSQLHEEIKENEERNLSHNQPTGANEDVELLKKQLEQLRNIEDQFELHKTKWAKEREQLKMHNDSLSKEYQNLSKELFLTKPQDSSSEEVASLTKKLEEANEKIKQLEQAQAQTAVES
# notes: Bik1 coiled-coil domain, S. cerevisiae CLIP-170 ortholog, residues 182–396; Dimer by SEC-MALS (51 kD); source: recombinantly expressed and purified (E. coli BL21 (DE3), IMAC, SEC)
# Legend:
# [1] = target: tubulin (free αβ-tubulin heterodimer) (not stated (bovine brain tubulin used for pelleting, pig brain tubulin for TIRF)) (UniProt Q6B856)
# [2] = target: the molecule itself; experiment: SEC-MALS; 25°C; 20 mM Tris-HCl pH 7.5, 150 mM NaCl, 1 mM DTT; 4–8 mg/ml of each protein applied, single proteins and mixtures (Bik1-CC, Kip2-NMD, Kip2-NMD-ΔT)
# [3] = target: B1; experiment: as above; settings: both partners purified
# [4] = target: T1, tubulin (free αβ-tubulin heterodimer) ( (bovine brain tubulin used …, UniProt Q6B856 1-445)); experiment: SEC-MALS; equimolar mixture of tubulin and Kip2-MD in its apo state; 25°C; settings: both partners purified
# [5] = target: T1, tubulin (free αβ-tubulin heterodimer); experiment: SEC-MALS; 25°C; 20 mM Hepes pH 7.4, 200 mM NaCl, 1 mM DTT; 4–8 mg/ml applied; MBP-Kip2(71-560)-mCherry or its P1^− mutant alone and mixed with tubulin; settings: both partners purified
# [6] = target: the molecule itself; experiment: as above
# Chain of tubulin (free αβ-tubulin heterodimer) (not stated (bovine brain tubulin used for pelleting, pig brain tubulin for TIRF)) (Q6B856 whole entry, looked up, one chain of several): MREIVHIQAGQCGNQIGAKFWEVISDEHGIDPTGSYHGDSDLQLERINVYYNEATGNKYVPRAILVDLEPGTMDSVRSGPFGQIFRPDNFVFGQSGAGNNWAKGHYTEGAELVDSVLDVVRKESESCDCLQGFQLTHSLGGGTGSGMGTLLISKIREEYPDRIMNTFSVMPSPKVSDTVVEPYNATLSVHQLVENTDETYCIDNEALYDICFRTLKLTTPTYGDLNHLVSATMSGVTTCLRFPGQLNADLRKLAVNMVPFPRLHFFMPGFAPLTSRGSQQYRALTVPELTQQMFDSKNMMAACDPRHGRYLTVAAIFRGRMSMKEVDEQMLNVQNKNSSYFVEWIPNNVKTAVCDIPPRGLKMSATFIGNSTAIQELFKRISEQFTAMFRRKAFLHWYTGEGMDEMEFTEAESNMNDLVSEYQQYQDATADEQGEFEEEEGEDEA
binder,measurement,setting,value
MBP-Kip2(1-560)-RFP (domain or fragment) MIQKMSPSLRRPSTRSSSGSSNIPQSPSVRSTSSFSNLTRNSIRSTSNSGSQSISASSTRSNSPLRSVSAKSDPFLHPGRIRIRRSDSINNNSRKNDTYTGSITVTIRPKPRSVGTSRDHVGLKSPRYSQPRSNSHHGSNTFVRDPWFITNDKTIVHEEIGEFKFDHVFASHCTNLEVYERTSKPMIDKLLMGFNATIFAYGMTGSGKTFTMSGNEQELGLIPLSVSYLFTNIMEQSMNGDKKFDVIISYLEIYNERIYDLLESGLEESGSRISTPSRLYMSKSNSNGLGVELKIRDDSQYGVKVIGLTERRCESSEELLRWIAVGDKSRKIGETDYNARSSRSHAIVLIRLTSTNVKNGTSRSSTLSLCDLAGSERATGQQERRKEGSFINKSLLALGTVISKLSADKMNSVGSNIPSPSASGSSSSSGNATNNGTSPSNHIPYRDSKLTRLLQPALSGDSIVTTICTVDTRNDAAAETMNTLRFASRAKNVALHVSKKSIISNGNNDGDKDRTIELLRRQLEEQRRMISELKNRSNIGEPLTKSSNESTYKDIKATGN,"average speed of microtubule growth in dynamic microtubule assay (porcine tubulin), 2 nM Kip2-WT, fold increase over no addition",[1],> 13 fold
same,"frequency of catastrophe in dynamic microtubule assay (porcine tubulin), 2 nM Kip2-WT, fold reduction against no addition",[1],19 fold
same,"length of freshly polymerized microtubules in dynamic microtubule assay (7 µM porcine tubulin, ATP), 2 nM Kip2-WT, fold over no addition",[1],5 fold
MBP-Kip2(1-560)-P1^−-RFP (domain or fragment) MIQKMSPSLRRPSTRSSSGSSNIPQSPSVRSTSSFSNLTRNSIRSTSNSGSQSISASSTRSNSPLRSVSAKSDPFLHPGRIRIRRSDSINNNSRKNDTYTGSITVTIRPKPRSVGTSRDHVGLKSPRYSQPRSNSHHGSNTFVRDPWFITNDKTIVHEEIGEFKFDHVFASHCTNLEVYERTSKPMIDKLLMGFNATIFAYGMTGSGKTFTMSGNEQELGLIPLSVSYLFTNIMEQSMNGDKKFDVIISYLEIYNERIYDLLESGLEESGSRISTPSRLYMSKSNSNGLGVELAIADDSQYGVKVIGLTERRCESSEELLRWIAVGDKSRKIGETDYNARSSRSHAIVLIRLTSTNVKNGTSRSSTLSLCDLAGSERATGQQERRKEGSFINKSLLALGTVISKLSADKMNSVGSNIPSPSASGSSSSSGNATNNGTSPSNHIPYRDSKLTRLLQPALSGDSIVTTICTVDTRNDAAAETMNTLRFASRAKNVALHVSKKSIISNGNNDGDKDRTIELLRRQLEEQRRMISELKNRSNIGEPLTKSSNESTYKDIKATGN,"average growth speed of microtubules in dynamic microtubule assay (porcine tubulin), 2, 4 and 8 nM Kip2-P1^− (no speed-up at 2 nM), fold over no addition",[1],2.9 fold
same,"effect on catastrophe frequency in dynamic microtubule assay (porcine tubulin), 2 nM Kip2-P1^−, against the wild-type protein",[1],10 fold
B1,stoichiometry N,[2],2
"Kip2 non-motor domain (Kip2-NMD, residues 504–706) (domain or fragment, S. cerevisiae, UniProt P28743 504-706, looked up, Kip2 non-motor domain (coiled coil and C-terminal tail), S. cerevisiae, residues 504–706; Dimer by SEC-MALS (45 kD); PreScission site between His tag and protein; also called NMD-Kip2; source: E. coli BL21 (DE3), purified (IMAC, SEC); not shown: His6, N-terminal, cleaved) SNGNNDGDKDRTIELLRRQLEEQRRMISELKNRSNIGEPLTKSSNESTYKDIKATGNDGDPNLALMRAENRVLKYKLENCEKLLDKDVVDLQDSEIMEIVEMLPFEVGTLLETKFQGLESQIRQYRKYTQKLEDKIMALEKSGHTAMSLTGCDGTEVIELQKMLERKDKMIEALQSAKRLRDRALKPLINTQQSPHPVVDNDK",stoichiometry N,[3],1 Kip2-NMD dimer per Bik1-CC dimer
same,stoichiometry N,[2],2
"Kip2-NMD-ΔT (truncated non-motor domain of Kip2, residues 504–645) (domain or fragment, S. cerevisiae, UniProt P28743 504-645, looked up, Kip2 non-motor domain lacking the C-terminal tail, S. cerevisiae, residues 504–645; Dimer by SEC-MALS (34 kD); also called Kip2-NMD-∆T; source: E. coli BL21 (DE3), purified (IMAC, SEC); not shown: His6, N-terminal, cleaved) SNGNNDGDKDRTIELLRRQLEEQRRMISELKNRSNIGEPLTKSSNESTYKDIKATGNDGDPNLALMRAENRVLKYKLENCEKLLDKDVVDLQDSEIMEIVEMLPFEVGTLLETKFQGLESQIRQYRKYTQKLEDKIMALEKS",stoichiometry N,[2],2
"Kip2 motor domain (Kip2-MD, residues 100–503) (domain or fragment, S. cerevisiae, UniProt P28743 100-503, looked up, Kip2 motor domain, S. cerevisiae, residues 100–503; Used in its apo state; The methods tell cleavage of the His tag only for Kip2-NMD and Kip2-NMD-ΔT; also called apo Kip2-MD; source: E. coli BL21 (DE3), purified (IMAC, SEC)) TGSITVTIRPKPRSVGTSRDHVGLKSPRYSQPRSNSHHGSNTFVRDPWFITNDKTIVHEEIGEFKFDHVFASHCTNLEVYERTSKPMIDKLLMGFNATIFAYGMTGSGKTFTMSGNEQELGLIPLSVSYLFTNIMEQSMNGDKKFDVIISYLEIYNERIYDLLESGLEESGSRISTPSRLYMSKSNSNGLGVELKIRDDSQYGVKVIGLTERRCESSEELLRWIAVGDKSRKIGETDYNARSSRSHAIVLIRLTSTNVKNGTSRSSTLSLCDLAGSERATGQQERRKEGSFINKSLLALGTVISKLSADKMNSVGSNIPSPSASGSSSSSGNATNNGTSPSNHIPYRDSKLTRLLQPALSGDSIVTTICTVDTRNDAAAETMNTLRFASRAKNVALHVSKKSII",stoichiometry N,[4],1
"MBP-Kip2(71-560)-mCherry (domain or fragment, S. cerevisiae, UniProt P28743 71-560, looked up, Kip2 motor domain with a first helix predicted to form part of the coiled coil, S. cerevisiae, residues 71–560; Mixed monomers and dimers by SEC-MALS (185 kD; monomer calculated 125.8 kD); also called MBP-Kip2-MD-mCherry; MBP-Kip2-MD; not shown: MBP, N-terminal, kept; mCherry, C-terminal, kept) KSDPFLHPGRIRIRRSDSINNNSRKNDTYTGSITVTIRPKPRSVGTSRDHVGLKSPRYSQPRSNSHHGSNTFVRDPWFITNDKTIVHEEIGEFKFDHVFASHCTNLEVYERTSKPMIDKLLMGFNATIFAYGMTGSGKTFTMSGNEQELGLIPLSVSYLFTNIMEQSMNGDKKFDVIISYLEIYNERIYDLLESGLEESGSRISTPSRLYMSKSNSNGLGVELKIRDDSQYGVKVIGLTERRCESSEELLRWIAVGDKSRKIGETDYNARSSRSHAIVLIRLTSTNVKNGTSRSSTLSLCDLAGSERATGQQERRKEGSFINKSLLALGTVISKLSADKMNSVGSNIPSPSASGSSSSSGNATNNGTSPSNHIPYRDSKLTRLLQPALSGDSIVTTICTVDTRNDAAAETMNTLRFASRAKNVALHVSKKSIISNGNNDGDKDRTIELLRRQLEEQRRMISELKNRSNIGEPLTKSSNESTYKDIKATGN",stoichiometry N,[5],1 MBP-Kip2-MD-mCherry dimer per tubulin dimer
same,stoichiometry N,[6],2
"MBP-Kip2(71-560)-P1^−-mCherry (domain or fragment, S. cerevisiae, UniProt P28743 71-560, looked up, Kip2 motor domain with a first helix of the coiled coil, S. cerevisiae, residues 71–560, patch 1 (Lys294, Arg296) substituted with alanines; Mixed monomers and dimers by SEC-MALS (192 kD); also called MBP-Kip2-MD-P1^−-mCherry; MBP-Kip2-MD-P1; not shown: MBP, N-terminal, kept; mCherry, C-terminal, kept) KSDPFLHPGRIRIRRSDSINNNSRKNDTYTGSITVTIRPKPRSVGTSRDHVGLKSPRYSQPRSNSHHGSNTFVRDPWFITNDKTIVHEEIGEFKFDHVFASHCTNLEVYERTSKPMIDKLLMGFNATIFAYGMTGSGKTFTMSGNEQELGLIPLSVSYLFTNIMEQSMNGDKKFDVIISYLEIYNERIYDLLESGLEESGSRISTPSRLYMSKSNSNGLGVELAIADDSQYGVKVIGLTERRCESSEELLRWIAVGDKSRKIGETDYNARSSRSHAIVLIRLTSTNVKNGTSRSSTLSLCDLAGSERATGQQERRKEGSFINKSLLALGTVISKLSADKMNSVGSNIPSPSASGSSSSSGNATNNGTSPSNHIPYRDSKLTRLLQPALSGDSIVTTICTVDTRNDAAAETMNTLRFASRAKNVALHVSKKSIISNGNNDGDKDRTIELLRRQLEEQRRMISELKNRSNIGEPLTKSSNESTYKDIKATGN",stoichiometry N,[6],2
